Results taken from the RNAGym collection of RNA variant scans (doi:10.1093/nar/gkz1192).

B1: CPEB3 Ribozyme (parent)
chain: UAACAGGGGGCCACAGCAGAAGCGUUCACGUCGCAGCCCCUGUCAGAUUCUGGUGAAUCUGCGAAUUCUGCUGUAUAUCUC

Variants of: B1
Assay: self-cleavage, relative activity (ratio to wild type); higher = more cleavage; in vitro, sequencing
Procedure, shortened: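 Relative activity was defined as the cleaved/total read fraction for a variant divided by the same fraction for the unmutated ribozyme. CPEB3 self-cleaving ribozyme libraries were made by rounds of error-prone PCR, barcoded, and transcribed in vitro with T7 RNA polymerase for 5 hours at 37°C, and cleavage ran through transcription plus a 15 min DNase I step before EDTA. Illumina sequencing of template-switched reverse transcripts gave the reads, and DNA sequencing mapped the barcodes. Averages come from three batches, using variants with at least 5 reads.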

| Variant | self-cleavage |
| --- | --- |
| G16U U25A | 0.2 |
| C17G U78C | 0.48 |
| C17U C34A | 0.16 |
| G16C A57G | 0.57 |
| A18C A75G | 0.41 |
| G16C U49C | 0.08 |
| G16C U48G | 0.18 |
| G16A U41A | 0.1 |
| G16A U41G | 0.12 |
| G16A U41C | 0.49 |
| C17A U60A | 0.26 |
| C17A U60C | 0.18 |
| G16U A45U | 0.21 |
| G16U A45G | 0.21 |
| C17A A21G | 0.25 |
| G16U U26A | 0.26 |
| G16U U26C | 0.24 |
| C17G U49C | 0.06 |
| G16U U67C | 0.09 |
| G16U U67A | 0.19 |
| C17A A57G | 0.34 |
| G16A U78C | 0.59 |
| G16A U78A | 0.52 |
| G16A U72A | 0.36 |

| Variant | self-cleavage |
| --- | --- |
| G16A U72G | 0.16 |
| G16A U72C | 0.79 |
| A18C C68A | 0.18 |
| C17G A75U | 0.52 |
| C17A U66C | 0.07 |
| G16U C81U | 0.35 |
| G16C A56G | 0.21 |
| C17G | 0.35 |
| C17U | 0.73 |
| C17A | 0.32 |
| C17U A20G | 0.45 |
| C17U A75U | 0.81 |
| G16C U66C | 0.16 |
| C17G C32U | 0.27 |
| C17G C32G | 0.23 |
| C17G G33A | 0.24 |
| G16C U54C | 0.46 |
| C17A U80C | 0.24 |
| C17A U80G | 0.23 |
| G16C U43C | 0.21 |
| G16A U67C | 0.11 |
| G16A U67A | 0.34 |
| G16C A18U | 0.28 |
| G16C C23A | 0.5 |

| Variant | self-cleavage |
| --- | --- |
| C17G A57G | 0.51 |
| C17U A64U | 0.3 |
| C17U A64G | 0.52 |
| C17A A64G | 0.24 |
| G16C A77G | 0.21 |
| G16C U67C | 0.42 |
| G16U U49G | 0.14 |
| G16U U49C | 0.1 |
| A18C G33A | 0.42 |
| A18C G33U | 0.13 |
| G16A A47G | 0.5 |
| A15U U72A | 1.09 |
| A15U U72C | 0.87 |
| A15U U72G | 0.91 |
| C17G U31C | 0.28 |
| G16A A21U | 0.2 |
| G16A A21G | 0.16 |
| C17U A77G | 0.69 |
| G16A A64G | 0.45 |
| G16A A64U | 0.19 |
| G16U A56G | 0.28 |
| C17A A28G | 0.22 |
| C17U U31C | 0.42 |
| G16U U60G | 0.21 |

| Variant | self-cleavage |
| --- | --- |
| C17U A47U | 0.33 |
| G16C U76C | 0.41 |
| G16A U26A | 0.34 |
| G16A U26C | 0.13 |
| C17A A47G | 0.28 |
| C17A A47U | 0.44 |
| G16A U54C | 0.66 |
| A18C A56U | 0.14 |
| A18C A56G | 0.17 |
| G16A C37U | 0.24 |
| C17U U48C | 0.31 |
| C17U U48A | 0.24 |
| A18C U41A | 0.32 |
| G16A U74A | 1.21 |
| G16A U74C | 0.77 |
| C17U G46U | 0.23 |
| G16U U69A | 0.22 |
| G16U U69C | 0.13 |
| C17U G55A | 0.38 |
| C17G U58C | 0.22 |
| C17U G61U | 0.27 |
| G16C G22C | 0.07 |
| G16C U31C | 0.18 |
| G16U U31C | 0.19 |

| Variant | self-cleavage |
| --- | --- |
| G16A A28U | 0.21 |
| G16A A28G | 0.25 |
| G16U A57G | 0.26 |
| A18C C79A | 0.9 |
| C17A A75U | 0.2 |
| G16A A57G | 0.27 |
| C17U U51G | 0.74 |
| C17U U51C | 0.56 |
| G16A G30A | 0.06 |
| G16A G30C | 0.05 |
| C17U C40U | 0.21 |
| A18C A21G | 0.21 |
| G16U G33A | 0.32 |
| G16U G33C | 0.09 |
| A18C A57G | 0.3 |
| C17U G24C | 0.11 |
| C17U C62A | 0.11 |
| C17U C37A | 0.09 |
| C17G U26A | 0.29 |
| C17G U26C | 0.16 |
| A15U U80A | 1.01 |
| A15U U80C | 1.03 |
| G16A U49A | 0.4 |
| G16U U43C | 0.15 |

| Variant | self-cleavage |
| --- | --- |
| G16U G36A | 0.37 |
| G16C U26C | 0.23 |
| G16C U26A | 0.3 |
| A15U U69G | 0.34 |
| C17U G30U | 0.09 |
| C17U A65U | 0.55 |
| G16A G33U | 0.18 |
| G16C U78C | 0.22 |
| A18C C71A | 0.09 |
| C17U U60A | 0.23 |
| C17U U60C | 0.21 |
| G16C A45U | 0.13 |
| G16C A45G | 0.42 |
| G16U A47G | 0.32 |
| G16U A47U | 0.16 |
| C17U A28C | 0.51 |
| C17U A28U | 0.41 |
| C17U A28G | 0.36 |
| A18C A45G | 0.29 |
| A18C A45U | 0.1 |
| A18C A45C | 0.21 |
| A18C C38U | 0.12 |
| G16U G61A | 0.18 |
| C17G C79U | 0.27 |

| Variant | self-cleavage |
| --- | --- |
| G16A A20G | 0.24 |
| G16A A20U | 0.16 |
| C17G U60G | 0.25 |
| C17G U60A | 0.19 |
| G16A U25A | 0.36 |
| G16A U25C | 0.18 |
| C17U G53C | 0.66 |
| C17U A35G | 1.26 |
| A18C A77G | 0.26 |
| G16A C23A | 0.08 |
| C17U U43C | 0.41 |
| C17U U43A | 0.98 |
| G16A C39U | 0.15 |
| G16A C39A | 0.33 |
| C17U U58C | 0.17 |
| C17U U58G | 0.15 |
| C17U U66C | 0.23 |
| G16A A56G | 0.4 |
| G16A A56U | 0.13 |
| C17A U25C | 0.2 |
| C17A U25G | 0.47 |
| G16C U25C | 0.21 |
| C17G U51C | 0.6 |
